This note sets out measurements from PMC4072685, “Galactose Oxidase from Fusarium oxysporum - Expression in E. coli and P. pastoris and Biochemical Characterization” (PLoS ONE, 2014).

For orientation: Km means the substrate concentration at which the rate is half of its maximum. For orientation: Vmax means the rate approached at saturating substrate. One may read the kcat as the maximal rate divided by the concentration of active sites. A word on the kcat/Km: it is the turnover number divided by the Michaelis constant.

Data set [1] deals with T1, GalOx (galactose 6-oxidase from Fusarium oxysporum G12) (Fusarium oxysporum, UniProt V5NQ89).
T1 construct: gene gao
T1 sequence (V5NQ89 40-681 limits assumed): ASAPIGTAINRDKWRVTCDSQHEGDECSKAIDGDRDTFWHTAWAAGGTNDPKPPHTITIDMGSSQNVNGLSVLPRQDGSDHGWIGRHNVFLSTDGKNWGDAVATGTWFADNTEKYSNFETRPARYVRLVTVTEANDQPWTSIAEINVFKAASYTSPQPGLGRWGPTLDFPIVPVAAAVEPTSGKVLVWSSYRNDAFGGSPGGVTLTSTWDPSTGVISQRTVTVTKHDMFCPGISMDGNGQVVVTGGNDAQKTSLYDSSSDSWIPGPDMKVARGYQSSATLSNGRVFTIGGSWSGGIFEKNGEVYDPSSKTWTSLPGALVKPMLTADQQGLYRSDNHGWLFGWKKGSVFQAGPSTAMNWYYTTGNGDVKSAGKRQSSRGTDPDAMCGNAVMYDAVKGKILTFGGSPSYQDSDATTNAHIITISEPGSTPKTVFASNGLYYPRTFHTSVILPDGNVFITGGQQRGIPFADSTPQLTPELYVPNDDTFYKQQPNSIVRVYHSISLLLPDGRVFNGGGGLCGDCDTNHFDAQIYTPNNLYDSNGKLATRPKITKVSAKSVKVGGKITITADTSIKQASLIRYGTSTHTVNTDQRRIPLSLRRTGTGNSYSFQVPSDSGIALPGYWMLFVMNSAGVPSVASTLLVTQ
Kind of data set: ABTS/horseradish peroxidase coupled assay, […] nm, Michaelis-Menten fit. Particulars: apparent constant; co-substrate O2 (air); 20 mM potassium phosphate pH 7.0, 30°C; Cu2+-activated enzyme.

The subject of data set [2] is CO[C@@H]1O[C@H](CO)[C@H](O)[C@H](O)[C@H]1O. Kind of data set: purified protein. Particulars: apparent constant, co-substrate O2 (air), 20 mM potassium phosphate pH 7.0, 30°C, Cu2+-activated enzyme.
The test system of data set [3] is OC[C@H]1O[C@H](OC[C@H]2O[C@H](O[C@]3(CO)O[C@H](CO)[C@@H](O)[C@@H]3O)[C@H](O)[C@@H](O)[C@@H]2O)[C@H](O)[C@@H](O)[C@H]1O. As to the kind of experiment: purified protein. Conditions: apparent constant, co-substrate O2 (air), 20 mM potassium phosphate pH 7.0, 30°C, Cu2+-activated enzyme.
For data set [4], the system named is CO[C@H]1O[C@H](CO)[C@H](O)[C@H](O)[C@H]1O. Kind of data set: purified protein. Conditions: apparent constant, co-substrate O2 (air), 20 mM potassium phosphate pH 7.0, 30°C, Cu2+-activated enzyme.

For the compound `OC[C@H]1OC(O)[C@H](O)[C@@H](O)[C@H]1O` (stereo partly drawn) [D-galactose], the Km in data set [1] came to 47 mM.
Turning to “GalOx (galactose 6-oxidase from Fusarium oxysporum G12) (Fusarium oxysporum)”, in data set [2], the Km was determined as 45 mM, the Vmax was determined as 81 µmol/min/mg, the kcat was found to be 99 s⁻¹ and the kcat/Km came to 2200 M⁻¹ s⁻¹. In addition, in data set [3], the Km amounted to 23 mM, the Vmax came to 23 µmol/min/mg, the kcat turned out to be 28 s⁻¹ and the kcat/Km worked out at 1200 M⁻¹ s⁻¹. Besides, in data set [4], the Km is on record as 41 mM, the Vmax turned out to be 47 µmol/min/mg, the kcat was found to be 57 s⁻¹ and the kcat/Km came to 1400 M⁻¹ s⁻¹.
